Experimental data published in patent publication US20060030527A1 (TRANSTECH PHARMA, published 2006).
Each block holds one binder with its values, some of them ahead of it.

Columns and labels:
[1] = molecular target: T1, Amyloid Beta (1-40) from Biosource (UniProt P05067 672-711); assay: ELISA, immobilised ligand, dilutions of a 1.082 mg/mL solution
T1 construct: domain: Amyloid Beta (1-40); Immobilised on Maxisorb plates; amyloid beta 1-40 is a fragment of it; also called Abeta; A-beta
Method: (§1) Known RAGE ligands were coated onto the surface of Maxisorb plates at a concentration of 5 micrograms per well. Plates were incubated at 4° C. overnight. Following ligand incubation, plates were aspirated and a blocking buffer of 1% BSA in 50 mM imidizole buffer (pH 7.2) was added to the plates for 1 hour at room temperature. The plates were then aspirated and/or washed with wash buffer (20 mM Imidizole, 150 mM NaCl, 0.05% Tween-20, 5 mM CaCl₂ and 5 mM MgCl₂, pH 7.2). […] The fusion protein was added at increasing dilutions of the initial sample. The RAGE fusion protein was allowed to incubate with the immobilized ligand at 37° C. for one hour after which the plate was washed and assayed for binding of the fusion protein. Binding was detected by the addition of an immunodetection complex containing a monoclonal mouse anti-human IgG1 diluted 1:11,000 to a final assay concentration (FAC) of 21 ng/100 μL, a biotinylated goat anti-mouse IgG diluted 1:500, to a FAC of […], and an avidin-linked alkaline phosphatase. […] Binding of the complex to the immobilized fusion protein was quantified by measuring conversion of PNPP to para-nitrophenol (PNP) which was measured spectrophotometrically at 405 nm.

BSA = molecular target: T2, BSA (UniProt P02769 25-607); assay: ELISA on coated Maxisorb plates, absorbance at 405 nm
T2 construct: also called BSA coating alone; BSA+wash
T2 sequence (P02769 25-607 limits assumed): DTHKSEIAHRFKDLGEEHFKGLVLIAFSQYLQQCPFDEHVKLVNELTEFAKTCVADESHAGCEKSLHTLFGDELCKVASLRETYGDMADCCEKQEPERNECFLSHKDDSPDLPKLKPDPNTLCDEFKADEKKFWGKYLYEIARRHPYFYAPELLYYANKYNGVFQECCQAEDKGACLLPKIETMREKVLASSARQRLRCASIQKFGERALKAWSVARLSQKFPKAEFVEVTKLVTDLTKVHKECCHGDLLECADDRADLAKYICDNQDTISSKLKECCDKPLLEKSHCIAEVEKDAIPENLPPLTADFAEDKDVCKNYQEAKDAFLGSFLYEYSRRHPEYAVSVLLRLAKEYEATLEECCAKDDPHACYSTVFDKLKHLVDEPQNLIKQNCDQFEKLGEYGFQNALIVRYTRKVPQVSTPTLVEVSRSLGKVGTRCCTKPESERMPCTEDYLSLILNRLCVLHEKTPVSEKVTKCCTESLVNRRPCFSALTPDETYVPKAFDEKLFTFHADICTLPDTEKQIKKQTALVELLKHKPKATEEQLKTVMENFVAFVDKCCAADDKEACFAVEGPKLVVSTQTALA
Method: as §1

[2] = molecular target: T1, Amyloid Beta (1-40) from Biosource; assay: ELISA, ligand coated on Maxisorb plate, fusion protein detected through anti-human IgG1 complex
Method: as §1

T1 sequence (P05067 672-711 limits assumed): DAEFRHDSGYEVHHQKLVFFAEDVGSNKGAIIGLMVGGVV

binding result [1]: binds
binding result (BSA): no binding
B1: RAGE fusion protein TTP-3000 (Fc fusion)
chain: AQNITARIGEPLVLKCKGAPKKPPQRLEWKLNTGRTEAWKVLSPQGGGPWDSVARVLPNGSLFLPAVGIQDEGIFRCQAMNRNGKETKSNYRVRVYQIPGKPEIVDSASELTAGPSVFLFPPKPKDTLMISRTPEVTCVVVDVSHEDPEVKFNWYVDGVEVHNAKTKPREEQYNSTYRVVSVLTVLHQDWLNGKEYKCKVSNKALPAPIEKTISKAKGQPREPQVYTLPPSRDELTKNQVSLTCLVKGFYPSDIAVEWESNGQPENNYKTTPPVLDSDGSFFLYSKLTVDKSRWQQGNVFSCSVMHEALHNHYTQKSLSLSPGK
notes: also called TT3; three domain RAGE fusion protein

binding result [2]: binds
binding result (BSA): no binding
B2: RAGE fusion protein TTP-4000 (Fc fusion)
chain: AQNITARIGEPLVLKCKGAPKKPPQRLEWKLNTGRTEAWKVLSPQGGGPWDSVARVLPNGSLFLPAVGIQDEGIFRCQAMNRNGKETKSNYRVRVYQIPGKPEIVDSASELTAGVPNKVGTCVSEGSYPAGTLSWHLDGKPLVPNEKGVSVKEQTRRHPETGLFTLQSELMVTPARGGDPRPTFSCSFSPGLPRHRALRTAPIQPRVWEPVPLEEVQLVVEPEGGAVAPPSVFLFPPKPKDTLMISRTPEVTCVVVDVSHEDPEVKFNWYVDGVEVHNAKTKPREEQYNSTYRVVSVLTVLHQDWLNGKEYKCKVSNKALPAPIEKTISKAKGQPREPQVYTLPPSRDELTKNQVSLTCLVKGFYPSDIAVEWESNGQPENNYKTTPPVLDSDGSFFLYSKLTVDKSRWQQGNVFSCSVMHEALHNHYTQKSLSLSPGK
notes: No immunoglobulin hinge; also called TT4; four domain RAGE fusion protein
